Measured values as given in paper PMC2746992.

How the values were obtained:
Experiment in all cases: spectrophotometric, decrease in A260
Settings in all cases: 50 mM Tris-HCl, pH 7.5, 0.1 mM MnCl2, 25 °C
[1] = substrate: O=C(O)/C=C\C=C/C(=O)O; format: biochemical, Pseudomonas protegens
[2] = substrate: O=C(O)/C=C\C=C/C(=O)O; format: biochemical, Pseudomonas putida
[3] = substrate: O=C(O)/C=C\C=C/C(=O)O; format: biochemical, Mycolicibacterium smegmatis

B1: MLE-1 from Pseudomonas fluorescens (MLE-PF, syn-MLE) (Pseudomonas protegens Pf-5) (protein)
chain: MHASAIESIETIIVDLPTIRPHKLAMHTMQNQTLVLIRLRCADGIEGLGESTTIGGLAYGNESPDSIKTNIDRFVAPLLIGQDASNINAAMLRLEQSIRGNTFAKSGIESALLDAQGKRLGLPVSELLGGRVRDALPVAWTLASGDTAKDIAEAQKMLDLRRHRIFKLKIGAGEVDRDLAHVIAIKKALGDSASVRVDVNQAWDEAVALRACRILGGNGIDLIEQPISRNNRAGMVRLNASSPAPIMADESIECVEDAFNLAREGAASVFALKIAKNGGPRATLRTAAIAEAAGIGLYGGTMLEGGIGTLASAHAFLTLNKLSWDTELFGPLLLTEDILAEPPVYRDFHLHVSKAPGLGLSLDEERLAFFRRD
B1 was tested, and the Km [1] was “(1.6 ± 0.2) × 10^-5 M”, the kcat [1] was 110 ± 2 s⁻¹ and the kcat/Km [1] was 7e+06 M⁻¹ s⁻¹.

B2: MLE-1 from Pseudomonas putida (Pseudomonas putida) (protein)
chain: TSVLIERIEAIIVHDLPTIRPPHKLAMHTMQTQTLVLIRVRCSDGVEGIGEATTIGGLAYGYESPEGIKANIDAHLAPALVGLPADNINAAMLKLDKLAKGNTFAKSGIESALLDAQGKRLGLPVSELLGGRVRDSLEVAWTLASGDTARDIAEAQHMLEIRRHRVFKLKIGANPLAQDLKHVVAIKRELGDSASVRVDVNQYWDESQAIRACQVLGDNGIDLIEQPISRINRSGQVRLNQRSPAPIMADESIESVEDAFSLAADGAASIFALKIAKNGGPRAVLRTAQIAEAAGIALYGGTMLEGSIGTLASAHAFLTLRQLTWGTELFGPLLLTEEIVNEPPQYRDFQLHIPRTPGLGLTLDEQRLARFARR
With B2 the Km [2] was “(5.4 ± 0.5) × 10^-4 M”, the kcat [2] was 11 ± 0.5 s⁻¹ and the kcat/Km [2] was 20000 M⁻¹ s⁻¹.

B3: MLE-2 from Mycobacterium smegmatis (MLE-MS, anti-MLE) (Mycolicibacterium smegmatis MC2 155) (protein)
chain: MKIVAIGAIPFSIPYTKPLRFASGEVHAAEHVLVRVHTDDGIVGVAEAPPRPFTYGETQTGIVAVIEQYFAPALIGLTLTEREVAHTRMARTVGNPTAKAAIDMAMWDALGQSLRLSVSEMLGGYTDRMRVSHMLGFDDPVKMVAEAERIRETYGINTFKVKVGRRPVQLDTAVVRALRERFGDAIELYVDGNRGWSAAESLRAMREMADLDLLFAEELCPADDVLSRRRLVGQLDMPFIADESVPTPADVTREVLGGSATAISIKTARTGFTGSTRVHHLAEGLGLDMVMGNQIDGQIGTACTVSFGTAFERTSRHAGELSNFLDMSDDLLTVPLQISDGQLHRRPGPGLGIEIDPDKLAHYRTDN
B3 was tested, and the Km [3] was “(5.6 ± 1) × 10^-4 M”, the kcat [3] was 78 ± 6 s⁻¹ and the kcat/Km [3] was 140000 M⁻¹ s⁻¹.
